Laboratory results as given in patent US20240190999A1.
Values belong to the binder of their own block, whether it stands above or below them.

What was measured:
[1] = target: biotinylated cynomolgus 4-1BB (bio.c4-1BB) (cynomolgus monkey) (UniProt A9YYE7); assay: SPR (ProteOn XPR36); end of the group's range, tied to #47 by Table 15
[2] = target: biotinylated cynomolgus 4-1BB (bio.c4-1BB) (cynomolgus monkey) (UniProt A9YYE7); assay: SPR (ProteOn XPR36); told of the group, largest difference is that of #47 by Table 15
[3] = target: biotinylated cynomolgus 4-1BB (bio.c4-1BB) (cynomolgus monkey) (UniProt A9YYE7); assay: SPR (ProteOn XPR36), biotinylated c4-1BB immobilised on GLC chip, construct as analyte
[4] = target: biotinylated cynomolgus 4-1BB (bio.c4-1BB) (cynomolgus monkey) (UniProt A9YYE7); assay: SPR (ProteOn XPR36), bio.c4-1BB on NLC chip, MpA analyte; mean of triplicate
[5] = target: biotinylated human 4-1BB-Fc (bio.h4-1BB-Fc) (human) (UniProt Q07011); assay: SPR (ProteOn XPR36), sequential injections; 100 nM MpA on 360 RU bio.h4-1BB-Fc on NLC chip
[6] = target: biotinylated cynomolgus 4-1BB (bio.c4-1BB) (cynomolgus monkey) (UniProt A9YYE7); assay: SPR (ProteOn XPR36), bio.c4-1BB on NLC chip, MpA analyte; mean of triplicate; apparent affinity (bivalent)
[7] = target: biotinylated cynomolgus 4-1BB (bio.c4-1BB) (cynomolgus monkey) (UniProt A9YYE7); assay: SPR (ProteOn XPR36); end of the group's range, tied to #44 by Table 15

Sequence of biotinylated cynomolgus 4-1BB (bio.c4-1BB) (cynomolgus monkey) (A9YYE7 entry or part of it): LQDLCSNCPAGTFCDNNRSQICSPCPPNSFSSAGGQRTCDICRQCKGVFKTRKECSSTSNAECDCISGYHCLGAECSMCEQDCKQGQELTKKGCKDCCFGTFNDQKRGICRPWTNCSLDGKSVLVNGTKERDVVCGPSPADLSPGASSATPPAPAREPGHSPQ
Sequence of biotinylated human 4-1BB-Fc (bio.h4-1BB-Fc) (human) (Q07011 24-186 limits assumed): as the sequence (A9YYE7 entry or part of it) above, with L4P, S19N, K50R, I66T, S67P, Y69F, E75G, A149V counted along it

B3: Multispecific binding protein A (MpA) (designed binder)
chain: GSDLGKKLLEAARAGQDDEVRELLKAGADVNAKDYFSHTPLHLAARNGHLKIVEVLLKAGADVNAKDFAGKTPLHLAAADGHLEIVEVLLKAGADVNAQDIFGKTPADIAADAGHEDIAEVLQKAAGSPTPTPTTPTPTPTTPTPTPTGSDLGKKLLEAARAGQDDEVRELLKAGADVNAKDVLGWTPLHLAAFEGHLEIVEVLLKAGADVNAKDKKGWTPLQLAARTGHLEIVEVLLKAGADVNAKDHIGATPLHLAAWQGHPEIVEVLLKAGADVNAQDKSGKTPADLAADAGHEDIAEVLQKAAGSPTPTPTTPTPTPTTPTPTPTGSDLGQKLLKAAQEGQDDEVRELLKAGADVNAKDLRGITPLHVAAWQGHLEIVEVLLKAGADVNAKDSKGETPLHLAAFRGHLEIVEVLLKAGADVNAQDQQGETPADLAALAGHVDIAEVLQKAAGSPTPTPTTPTPTPTTPTPTPTGSDLGQKLLKAAQEGQDDEVRELLKAGADVNAKDLRGITPLHVAAWQGHLEIVEVLLKAGADVNAKDSKGETPLHLAAFRGHLEIVEVLLKAGADVNAQDQQGETPADLAALAGHVDIAEVLQKAAGSPTPTPTTPTPTPTTPTPTPTGSDLGKKLLEAARAGQDDEVRELLKAGADVNAKDYFSHTPLHLAARNGHLKIVEVLLKAGADVNAKDFAGKTPLHLAAADGHLEIVEVLLKAGADVNAQDIFGKTPADIAADAGHEDIAEVLQKAA
koff [4]: 2.7e-05 s⁻¹
kon [4]: 2.1e+06 M⁻¹ s⁻¹
Binding stoichiometry [5]: 0.7
Kd [6]: 0.014 nM

B4: bispecific construct #44 (designed binder)
chain: MRGSHHHHHHGSDLGEKLLVAALYGQDDEVRILLAAGADVNAKDQWGLTPLHKAALQGHLEIVEVLLKAGADVNAKDERGHTPLHWAARFGHLEIVEVLLKAGADVNAQDQKGYTPADLAALWGHEDIAEVLQKAAGSPTPTPTTPTPTPTTPTPTPTGSDLGQKLLKAAQEGQDDEVRELLKAGADVNAKDLRGITPLHVAAWQGHLEIVEVLLKAGADVNAKDSKGETPLHLAAFRGHLEIVEVLLKAGADVNAQDQQGETPADLAALAGHVDIAEVLQKLN
Kd [7]: 1.1 to 2.9 nM
Kd [3]: 1.12 nM

Continued, values first:

Kd [1]: 1.1 to 2.9 nM
fold difference in binding affinity as compared to human 4-1BB [2]: < 4 fold
Kd [3]: 2.9 nM
B1: bispecific construct #47 (designed binder)
chain: MRGSHHHHHHGSDLGEKLLVAALYGQDDEVRILLAAGADVNAKDQWGLTPLHKAALQGHLEIVEVLLKAGADVNAKDERGHTPLHWAARFGHLEIVEVLLKAGADVNAQDQKGYTPADLAALWGHEDIAEVLQKAAGSPTPTPTTPTPTPTTPTPTPTGSDLGKKLLEAARAGQDDEVRELLKAGADVNAKDTYGETPLHLAAWKGHLEIVEVLLKAGADVNAKDSIGITPLHVAAHHGHLEIVEVLLKAGADVNAKDKWGRTPLHLAALLGHLEIAEVLLKAGADVNAQDKSGKTPADLAADAGHDDIAEVLQKLN

Kd [3]: 1.48 nM
B2: bispecific construct #49 (designed binder)
chain: MRGSHHHHHHGSDLGEKLLVAALYGQDDEVRILLAAGADVNAKDQWGLTPLHKAALQGHLEIVEVLLKAGADVNAKDERGHTPLHWAARFGHLEIVEVLLKAGADVNAQDQKGYTPADLAALWGHEDIAEVLQKAAGSPTPTPTTPTPTPTTPTPTPTGSDLGKKLLVAANVGQDDEVRILLAAGADVNAKDYHGYTPLHHAATYGHLEIVEVLLKAGADVNAKDQTGLTPLHLAAAKGHLEIVEVLLKAGADVNAQDHHGYTPADLAAFVGHEDIAVVLQKLN
